This is an account of results in article PMC10303687 (Protein Science : A Publication of the Protein Society, 2023).

Ends that are not written are not given here.

Settings in all cases: both partners purified
Test [1] has as its target T1, MDM2_(H. sapiens) SWIB domain (human (Homo sapiens)).
T1 construct: four residues left at the N-terminus after PreScission digestion, GPGS or GPMG; which of the two for this variant is in Excel File 1 in Data S1; MDM2, human, SWIB domain; the limits of the human construct itself are in Excel File 1 in Data S1; also called human MDM2; MDM2_(Human); source: E. coli BL21 (DE3) or BL21 (DE3) pLys, purified (Ni Sepharose or glutathione agarose, PreScission cleavage, …)
Put plainly: stopped-flow fluorescence kinetics; 10°C, 20 mM sodium phosphate pH 7.4, 150 mM NaCl, 1 mM TCEP; Trp23 emission; MDM2 constant at 0.5–2 μM, p53TAD varied 1–10 μM for k on; k off from displacement of the 1 μM:1 μM complex by 10–20 μM dansylated human p53TAD peptide; K D = k off/k on.

The target of test [2] is MDM2_(Reptiles/Mammals)^AltAll. Described as above.
For test [3], the target named is T2, p53TAD_(G. gallus)^14–26 (chicken (Gallus gallus), acetylated).
T2 construct: numbers count on: human p53 by alignment; also called chicken p53TAD; source: synthetic peptide, bought (Ontores Biotechnology, GL Biochem Shanghai Ltd or GeneCust)
The test is described as above.

Test [4] has as its target T3, MDM2_(D. rerio) SWIB domain (zebra fish (Danio rerio)).
T3 construct: four residues left at the N-terminus after PreScission digestion, GPGS or GPMG; which of the two for this variant is in Excel File 1 in Data S1; MDM2, zebra fish, SWIB domain; Construct limits are in Excel File 1 in Data S1; also called zebra fish MDM2; source: E. coli BL21 (DE3) or BL21 (DE3) pLys, purified (Ni Sepharose or glutathione agarose, PreScission cleavage, SEC); not shown: …
T3 sequence (O42354 whole entry, looked up): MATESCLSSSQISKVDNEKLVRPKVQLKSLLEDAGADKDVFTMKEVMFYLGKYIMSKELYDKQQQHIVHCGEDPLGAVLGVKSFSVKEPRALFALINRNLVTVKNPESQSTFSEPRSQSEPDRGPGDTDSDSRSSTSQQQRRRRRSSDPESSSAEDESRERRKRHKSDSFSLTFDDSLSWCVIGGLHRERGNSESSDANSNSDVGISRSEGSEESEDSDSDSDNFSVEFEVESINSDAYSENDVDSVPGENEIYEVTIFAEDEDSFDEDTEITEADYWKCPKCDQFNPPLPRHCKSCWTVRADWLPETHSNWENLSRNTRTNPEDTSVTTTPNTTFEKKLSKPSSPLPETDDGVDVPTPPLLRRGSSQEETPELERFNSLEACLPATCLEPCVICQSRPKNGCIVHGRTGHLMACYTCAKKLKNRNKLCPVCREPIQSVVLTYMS
Described as above.

Test [5] concerns the target MDM2_(Fishes/Tetrapods)^ML. The description is as above.
Test [6] addresses MDM2_(Reptiles/Mammals)^ML. Described as above.
Test [7] has as its target T1, MDM2_(H. sapiens) SWIB domain. Put plainly: fluorescence polarisation; displacement: FITC-labeled human p53TAD 15–26 (6 or 10 nM) and MDM2 constant, dilution series of unlabeled peptide; K D calculated from IC50; room temperature, same buffer as the kinetics.
Test [8] concerns the target MDM2_(Fishes/Tetrapods)^AltAll. Put plainly: stopped-flow fluorescence kinetics; 10°C, 20 mM sodium phosphate pH 7.4, 150 mM NaCl, 1 mM TCEP; Trp23 emission; MDM2 constant at 0.5–2 μM, p53TAD varied 1–10 μM for k on; k off from displacement of the 1 μM:1 μM complex by 10–20 μM dansylated human p53TAD peptide; K D = k off/k on.
The target of test [9] is MDM2_(H. sapiens) SWIB domain (human (Homo sapiens)). The test is described as above.
For test [10], the target named is MDM2_(L. camtschaticum) SWIB domain (arctic lamprey (Lethenteron …)). Briefly: fluorescence polarisation; displacement: FITC-labeled human p53TAD 15–26 (6 or 10 nM) and MDM2 constant, dilution series of unlabeled peptide; K D calculated from IC50; room temperature, same buffer as the kinetics.
Sequence of MDM2_(L. camtschaticum) SWIB domain (arctic lamprey (Lethenteron …)) (chain, as listed by the source): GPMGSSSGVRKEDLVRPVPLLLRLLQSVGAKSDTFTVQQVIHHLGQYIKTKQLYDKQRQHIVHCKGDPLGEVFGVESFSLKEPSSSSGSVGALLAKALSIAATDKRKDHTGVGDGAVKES

As for SQETFSDLWNML (not fully specified (N-terminus); also: acetylated, site not given here) [p53TAD_(Reptiles/Mammals)^AltAll], the Kd in test [1] was 9.5 nM; in [2] it was 200 nM.

B1: MDM2_(G. gallus) SWIB domain (domain or fragment)
chain: SPVSASEQEALVKPKPLLLKLLKLAGAEKDTFTMKEVIFYLGQYIMSKQLYDEKEQHIVHCANDLLGDLFGVTSFSVKEHRRIYSMISRNLIAINQQDSTLAVPPEDDA
For B1, in test [3], the Kd is 90 nM.

Turning to SQETFSDLWNML (not fully specified (N-terminus); also: acetylated, site not given here) [p53TAD_(Fishes/Tetrapods)^ML], the Kd amounted to 8 nM in test [1], 93 nM in test [4] and 145 nM in test [5].

As for SQETFDFLWKSL (not fully specified (N-terminus); also: acetylated, site not given here) [p53TAD_(Bilateria)^AltAll], the Kd in test [1] is 170 nM; in [5], 650 nM.

With SQDTFSDLWNQL (not fully specified (N-terminus); also: acetylated, site not given here) [p53TAD1R^AltAll], the Kd in test [1] worked out at 24 nM; in test [5], 370 nM.

Take SQETFSDLWNLL (not fully specified (N-terminus); also: acetylated, site not given here) [p53TAD_(Reptiles/Mammals)^ML]: the Kd in test [1] was determined as 8 nM; in test [6], 120 nM.

As for Ac-NDVELAELPWAPEDVI [p53TAD_(I. scapularis)], the Kd in [7] was 400000 nM.

As for SQESFSDLWNLL (not fully specified (N-terminus); also: acetylated, site not given here) [p53TAD_(Fishes/Tetrapods)^AltAll], the Kd turned out to be 19 nM in test [1] and 98 nM in [8].

For SQETFNHLWNML (not fully specified (N-terminus); also: acetylated, site not given here) [p53TAD1R^ML], the Kd was 82 nM in [1] and 660 nM in [5].

As to SQETFNHLWNTL (not fully specified (N-terminus); also: acetylated, site not given here) [p53TAD_(Bilateria)^ML], the values for the Kd in test [1] and in [5] were 600 nM and 2100 nM, respectively.

In the case of DSQETFAELWEKN (not fully specified (N-terminus); also: acetylated, site not given here) [p53TAD_(D. rerio)^insertT18], the Kd in test [9] is 4900 nM; in [4], 2300 nM.

Consider CVDDFDRVWQGGV (not fully specified (N-terminus); also: acetylated, site not given here) [p53TAD_(L. camtschaticum)], for which the Kd in [10] was 250000 nM.
